In a protein production outcome set (Wang et al. 2014):

Experiment: label from the status in PepcDB records
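Further: failed if final PepcDB status was selected cloned or expressed and not failed if soluble or beyond.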

Sequence	protein production
MAGTSQMNNGRSWMQGEKMIPNKDDAEEFANKAKNAVNSGDYDGAIADIERAIKASPRSVPYHLIKADALYRKGDYEDALDVLNFAETIEKNNPELLSLKSICYGSLGKFNESKIEATKAIKADPNYPFAYYNRAKAEQYLEEYDIAKKDLQKYLEMQPNDPDAYMDLADMEYHEGDYKKALQHVNTAIKKDKESTDAHDLKLNILLAQKDIENYLKELLEAFKDTEDFKYIGTLVETLKSVGSFDTAEDILKEFIKIYKDEPFLYDALARVYYDQDRKDDAYRTYEELLKSNDDREAKIYWFDFLLDDGSYDRLIGEIEKSGLKDDEVLEIKYIAEDQKGDHKAALSTADDLLKLDRTPYNTSLYGSQLRKLGRLDESIKALSEFDDDPDVAYELFLAYMDRGDVHSASKYLKTSIENSEDDDDVISNVLEGVSKMMDHSDFQSVNDFLDGLGKENDNLYILTEAMHAINSGVFEGYEKGKEKFLGLDEHKEEVCEFANNIVELTEGKAKAFLEKFIEDNCGENEMEE	failed
MAIPHYRLASFSSIIDDEIDKSVLVNLVGAIYDVGEFINTRPKQNIVDDLTLTFKISDNENRVLECLATKKEALDFDHNYRQYGGGVIVAVLGWWKIERYFDGTKNIRVCTACPISTVFP	failed
MQFNPTLDSIKTYEAGKPIELVVREYGIKPQNVIKLASNENPFGASPKVIEAIAKEAVNAHRYPDDSMFELKEGLAGRFGVKSENVIIGSGSDQILEMAVHAKCNASSKVLMSKTTFAMYDVYSRQVGARILRTPSDQHHLGEFWEIYQKERPEILFLCLPNNPLGECLDREEVYDFLQKIDDETLVIVDGAYQEYAAFKDSQKRIDPKDLIERFPSSIFLGTFSKAFGLGGMRVGYGIAQPSIIQALMKMRAPFNITTLSLKAAIEALKESAYVEETIKENFKEMRRYEEFALAQGIDFIPSYTNFITLLLKNRVDSSEFSQWLLERGLIVRNLKSYGINAIRITIGRSLENDRCFELMQEYLHQF	failed
MPSGRTHTKINLISLPVVLFMLFSYGLTNFDFLLTFAIGFLVGTTFLTPDLDTYSNAYNKWGFLRIFWYPYKKVMPHRSFFTHTIILGDVIRIAYMLIVFSPFLFLLNVIALDGNLIEMAKEHEVEIVTFVMGIVVASTLHIIADKVNTRRKKMMRKKKKRRR	failed
MNTTDRDASHTLLEQVNQALQDNTPLRIRGGNSKAFLGREVTGEPLDTRAHRGIVSYDPTELVITARAGTPLSEVLQALDAAGQMLPCEPPDIGAATLGGVVAAGLSGPRRPWSGSVRDFVLGTRLITGLGKHLRFGGEVMKNVAGYDVSRLLTGSFGCLGVLTEVSLKVLPKPRLCSSIALEMDSARALACLAEWGQQPMPISAASHDGRVLRLRLEGGEGSVAAAHERLGGELIDATYWQQLNEQRLPFFFDPGPLWRVCVPADTGVLDLPGEQLIDWAGAQRWLKSDASGDAIRAMTASVGGHATCYSQGRDDSPFHPLTTPLLRYHQALKTRLDPQGIFNPGRLYREL	failed
MSCVDKGFSPYISLLISGLTVVFDQVIKWQTQQSIAYGDSISLTPFFNWVHTWNTGAAFGLLSNGGGWQRYFFIGVALLMSVALTRLIFNKVSKRDGISYGLILGGAVGNLIDRLFRGYVVDSLHLGWQTWQLPVFNIADIAITLGVILLLLSNLQVSMIPNLPGSK	failed
NGKIALEEHFATEETLMDSAGFVPDKDWPELRSRLLDIQDRRVRLMDEHGIETMILSLNAPAVQAIADSTRANETARRANDFLAEQVAKQPTRFRGFAALPMQDPELAARELERCVKELGFVGALVNGFSQDNRSAVPLYYDMAQYWPFWETVQALDVPFYLHPRNPLPSDARIYDGHAWLLGPTWAFGQETAVHALRLMGSGLFDKYPALKIILGHMGEGLPYSMWRIDHRNAWIKTTPKYPAKRKIVDYFNENFYLTTSGNFRTQTLIDAILEIGADRILFSTDWPFENIDHAADWFENTSISEADRKKIGWGNAQNLFKLNR	not failed
NSNTLSQIQLNEQSCLSQVVNNLYRLHNSEFVFRNVFSVFDEFRQYFSLLENKSAFYQADSRMDKLSAVFWQFEEINKEVILRPCHNDLVPENMLLQDDRLFFIDWEYSGLNDPLFDIATIIEEAHLSKEAADFLLETYCNQTNKYHKTEFQIAHKRLKIHRFCQNVLWFLWTKVKEEHGENFGDYALKRLDAAFKLLEELP	failed
MIIVMSRRAAEADIAGVVAFIRSRGLREHISHGDERTVIGAIGDDRVLSVREVQTLPEVEKAVRILDTWKTVSRENRAEDSRVAAKGVAFGGGETVRIAAEPSVWSNADAVFLDPFFTSANLYDTLSADEGRGRCRRLAEQAASAHGAGKPVLVRVRNVRHVEAALNAGADILYLGGGLMSDLAVLNEAGSLNIPLVLCKDKHHSAEDWLNAAEYVVSRGNRHLILGESGVLGHTKGHPYRLDVESIVKVRQISHLPVIANITGLWSRDMPQEILYGLAKAAGACGIVGTCFEKAGG	failed
MAWNQPGNNGQDRDPWGSSKPGGNSEGNGNKGGRDQGPPDLDDIFRKLSKKLGGLGGGKGTGSGGGSSSQGPRPQLGGRVVTIAAAAIVIIWAASGFYTIKEAERGVVTRFGKFSHLVEPGLNWKPTFIDEVKPVNVEAVRELAASGVMLTSDENVVRVEMNVQYRVTNPEKYLYSVTSPDDSLRQATDSALRGVIGKYTMDRILTEGRTVIRSDTQRELEETIRPYDMGITLLDVNFQAARPPEEVKAAFDDAIAARENEQQYIREAEAYTNEVQPRANGQAQRILEEARAYKAQTILEAQGEVARFAKLLPEYKAAPEITRERLYIETMEKVLGNTRKVLVNDKGGNLMVLPLDQMLKGGNAPAAKSDNGASNLLRLPPASSSTTSGASNTSSTSQGDIMDQRRANAQRNDYQRQGE	failed
MTDLLLDGSEADNAQTVLNAARIELLSPRLANQIAAGEVVERPASVIKELLENSLDSGARRIDIDVEQAGIKLLKVRDDGGGISSDDLPLALARHATSKIRDLEDLERVMSLGFRGEALASISSVARLTLTSRTRDADQAWQVETEGRDMDARVQPAAHPVGTSVEVRDLFFNTPARRKFLKAEKTEFDHLHEVIKRMALARFDVAFHLRHNGKTVLSLHEAHDDTARARRVSAICGPGFLEQALPIEIERNGLHLWGWVGLPTFSRSQADLQYFFVNGRAVRDKLVAHAVRQAYRDVLFNGRHPTFVLFFEVDPAAVDVNVHPTKHEVRFRDGRMVHDFLYGTLHRALGDVRPENQLGGSVPAAAEPRPTGPDAGEFGPQGEMRLANNVLEQPQGEPFARPAGGGSGSGYQYSPRPTTGVPVAEAQSAYREFFAPLPGTTPSALPESPSDIPPLGYALAQLKGIYILAENAHGLVLVDMHAAHERIMYERLKIAMANEGLSGQPLLVPESIAVSQREADCAEEHITTFQRLGFELQRLGPETLAIRQIPALLKQAEANRLVSDVLADLMEYGTSDRVQAHMNELLGTMACHGAIRANRRLAIPEMNGLLRDMENTERSGQCNHGRPTWTQMGLSDLDKLFLRGQ	failed
MDDIDSLILIGVLIALTAFFVASEFAIVRVRRSRIDQLITEGNKRAILARRVITDLDEYLSASQLGITLTSIGLGVLGEPAFERLLHPLFEPLGLPDSVSHAVSFAVAYGLITFLHVVVGELAPKTVAIQKAEQLTLLIAGPLRLFYLLLFPFIWILNGSARLLCGMFGLKPASEHDGSHSEEELRMLLSESLKNGEINPSEYKYVNKIFEFDNRIAKEIMIPRKEMAAVSTEMTMAEMLEVMLKEKYTRWPVTDGDKDSVLGLVNTKHLFSDLLFMTEEERMKMTIHPYVRPVIEVIETIPVHDLLIKMQRERIHMAILSDEYGGTSGLVTTEDILEEIVGEIRDEFDEDEQPLIQKLGDGHYVMDGKVRIDQVNSLLGASIQEDVDTIGGLILKENIDIEAGESIRIGSYTIKVLKMDGRLIKQIDIKEEAGNTTGITAHHKLPLPEPVMLNSATLSEK	failed
MMKRALTGIQASGKQHLGNYLGVMQSLIELQEQCQLFVFVADLHSITVDFQPQALKQNNFDLVRTLLAVGLDPQKACLFLQSDLLEHSMMGYLMMVQSNLGELQRMTQFKAKKAEQTRNPNGTLNIPTGLLTYPALMAGDILLYQPDIVPVGNDQKQHLELTRDLAQRIQKKFKLKLRLPQFVQNKDTNRIMDLFDPTKKMSKSSKNQNGVIYLDDPKEVVVKKIRQATTDSFNKIRFAPKTQPGVTNMLTILKALLKEPVNQSLTNQLGNDLEAYFSTKSYLDLKNALTEATVNLLVNIQRKREQISREQVFNCLQAGKNQAQATARTTLALFYDGFGLGSQNIK	not failed
MLPLSLLKTAQGHPMLVELKNGETYNGHLVNCDTWMNIHLREVICTSKDGDRFWRMPECYIRGNTIKYLRVPDEVIDKVQEEKTRTDRKPPGVGRGRGRGVDDGGARGRGRGTSMGKMGGNRGAGRGRG	failed
MPEWAAFVGLTGFLLTALLGLARLSQGAVRSDGGVSSTVDGVSMADRDPTIPRFETQRAAAQRQQMRDTLAPSDVSTGALLANVAFTQGLFGVLLVAGAFYFEIPASAFGVTSDALSTGLPAVAIGIGAGIGFWVGNEGAAALADGFGVTFDESLRELLAPDSPGGWVILLGGVLPVIAIVEELLFRAAAIGVPVAGLNAPAWAMAIVASVAFALGHGAQGRVGIVVTGTLGLALAGLFIATNSLLAVVVAHYLVNALELLVHEGLGVDRLWA	failed
MTMTRTPLTQAAATLKARFREIGYTTSGINNVLGPDFVAAMHAGQPAAVRFHLDSLPESDLNLALRAFVLRDQVRVEKLAALLGEALKTLVDASLVEISGEYAQFLIDIRPHLIAGRQQWVFSDADASMTQHVPGPDHVLGVGAASLSLLQATPTSPTGSVLDLGTGSGIQVLGQAGAAQEIIATDVHPRALDFAEATLVDSGIPTQLVEGSWFEPVRGRTFDRIIANPPFVVGPPEIGHVYRDSGMDLDGATALVVKEACAHLNPGGTAHLLGAWVHSADQSWQQRVAEWLPDNGYVAWVIERDAVSPAQYVGTWLSDESLDLRSPEAAARTTAWLNHFEKAKVQGVGFGFIAIQRLEEDEADEKSDILAESMTQYFEDPLGPEIEEYFTRTAWLREQTRDSILSSRFKVRPGVAREQISLADAEEGMGFSPVTLRLTRTDGPRWSHDVDEHVASIVAGLNPHGLPFEEILEMYAMAQGIEGESLHNGAIAALVDLIRHGLVLPADLLDS	failed
MGHHHHHHSHMDDIFTQCREGNAVAVRLWLDNTENDLNQGDDHGFSPLHWACREGRSAVVEMLIMRGARINVMNRGDDTPLHLAASHGHRDIVQKLLQYKADINAVNEHGNVPLHYACFWGQDQVAEDLVANGALVSICNKYGEMPVDKAKAPLRELLRERAEK	not failed
MDGLFEFCQLSTGGSVAGAVKLNRQQTDMAVNWAGGLHHAKKYEASGFCYVNDIVLAILELLKYHQRVLYIDIDIHHGDGVEEAFYTTDRVMTVSFHKYGEYFPGTGDLRDIGAGKGKYYAVNFPMCDGIDDESYGQIFKPIISKVMEMYQPSAVVLQCGADSLSGDRLGCFNLTVKGHAKCVEVVKTFNLPLLMLGGGGYTIRNVARCWTYETAVALDCEIPNELPYNDYFEYFGPDFKLHISPSNMTNQNTPEYMEKIKQRLFENLRMLPHAPGVQMQAIPEDAVHEDSGDEDGEDPDKRISIRASDKRIACDLEHHHHHH	not failed
MDTPNKDDSIIRFSVSLQQNLLDELDNRIIKNGYSSRSELVRDMIREKLVEDNWAEDNPNDESKIAVLVVIYDHHQRELNQRMIDIQHASGTHVLCTTHIHMDEHNCLETIILQGNSFEIQRLQLEIGGLRGVKFAKLTKASSFEYNE	failed
MEVKQGLTLFARKQDMKSVWEITGSNIDLVCIGNFCRSLKDLSSRGGTDASTNTCMLPWQYSLQKPLLGVSYLNSDGSSQSTPHGSNGLVKRGATYIVSDDLTICVKKKFDVNLDDIFEHEINIGKTHSLIRDIHCLDYGFRELSFRETTLKHQSHALCGAD	failed
MLQSINQLNPDIVVITGDLTENGFSAEYDGVKMFIDRIECKNRVLVPGNHDSKNAGYLHFEDLFENRFQTRNLGNMTIVGADSSQPDIDDGHLGRENYGWIKEAFSGENFKVFALHHHLVPIPLAGRENTVLVDAGDVLDLLNKCRVNLVLCGHCHIPHVWNLNNMLVVNAGTFCSSKTRGKTTQCFNLIQAENSEKNGNGESEKIEDGGWKVRVSRVFPQGNIEFITETVMLEHHHHHH	failed
